From paper PMC6497274, “Isolation of nanobodies against Xenopus embryonic antigens using immune and non-immune phage display libraries” (PLoS ONE, 2019) come the findings set out here.

Experiment [1] addresses T1, Npm2 (nucleoplasmin) (Xenopus laevis, UniProt P05221).
T1 construct: predicted molecular weight 22 kDa, found as a 170 kDa band in SDS-PAGE; it was not measured here; also called 170 kDa band; source: endogenous, Xenopus laevis embryo lysate; copies: 10
Put plainly: affinity purification with mass spectrometry; purified His-tagged nanobody incubated with Xenopus embryo lysate (1% Triton X100 lysis buffer), captured on His60 Ni Superflow resin overnight at 4°C, SDS-PAGE, SimplyBlue staining, 170 kDa band cut out for LC-MS/MS. As to conditions: one partner purified.

The next experiment concerns the target T2, BSA (Bos taurus, UniProt P02769).
T2 construct: BSA (serum albumin), negative control coating in ELISA
The experiment can be described thus: ELISA; 96-well plate coated with 1 μg/ml Ndel1-MBP or BSA; purified nanobodies at 2 μg/ml in 2% skim milk in PBS/0.05% Tween-20, 4 h at room temperature; detected by anti-His-tag antibody. Particulars: both partners purified.

Experiment [2] concerns the target T1, Npm2 (nucleoplasmin). The experiment can be described thus: far-Western, overlay or dot blot; immunoblot: Xenopus embryo lysates of different stages on 10% SDS-PAGE, PVDF membrane probed overnight at 4°C with purified His-tagged nanobody (0.2-3 μg/ml), detected by anti-His6 antibody. As to conditions: one partner purified. (Immunoblotting shows a protein as a band on a membrane.)

T2 sequence (P02769 25-607): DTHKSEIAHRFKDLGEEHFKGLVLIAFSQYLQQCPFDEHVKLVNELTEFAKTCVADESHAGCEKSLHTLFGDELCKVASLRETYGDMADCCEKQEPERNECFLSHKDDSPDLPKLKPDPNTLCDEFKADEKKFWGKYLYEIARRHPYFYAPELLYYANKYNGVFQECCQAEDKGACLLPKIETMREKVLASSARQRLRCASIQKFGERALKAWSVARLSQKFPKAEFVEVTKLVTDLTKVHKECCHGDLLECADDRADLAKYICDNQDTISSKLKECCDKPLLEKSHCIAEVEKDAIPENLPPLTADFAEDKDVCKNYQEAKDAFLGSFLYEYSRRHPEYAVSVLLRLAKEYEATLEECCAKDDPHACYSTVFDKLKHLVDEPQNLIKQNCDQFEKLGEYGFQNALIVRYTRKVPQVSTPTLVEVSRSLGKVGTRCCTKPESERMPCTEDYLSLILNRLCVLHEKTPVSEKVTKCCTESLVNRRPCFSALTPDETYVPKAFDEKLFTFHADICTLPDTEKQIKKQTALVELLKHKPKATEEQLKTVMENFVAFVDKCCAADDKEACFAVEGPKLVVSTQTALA
T1 sequence (P05221 whole entry): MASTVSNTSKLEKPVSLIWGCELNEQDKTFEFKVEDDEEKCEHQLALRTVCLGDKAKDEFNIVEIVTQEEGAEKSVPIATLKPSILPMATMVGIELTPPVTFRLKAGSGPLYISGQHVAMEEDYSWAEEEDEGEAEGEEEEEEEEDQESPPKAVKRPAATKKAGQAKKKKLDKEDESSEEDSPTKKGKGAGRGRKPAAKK

B1: NbG12 (VHH)
VHH: VQLQASGGGLVQAGSSRRLYCAFSGDTFNGRPMGWFRQAPGKEREFVATISASGGRTYYAGSVLGRFTISRDNTRNTVSLQMNNLTPEDTAVYYCAAKRPTALSDNYDYKTENEYNYWGQGTQVTVS
notes: nanobody from the immune llama library; Nucleus-staining nanobody; source: bacterial periplasm (pecan126 phagemid clone), purified (His60-Ni-Superflow resin)
With B1, in the experiment with Npm2 (nucleoplasmin) [1], the binding result is listed as “binds”.

B2: NbE9 (VHH)
VHH: QVKLQESGGGSVQHGGSLRLSCVASGLSFSNHWMYWVRQAQGKGLEWVSSINPSGSFTSYTDSAKGRFTISKANDGHTVYLQMNNLKPEDTGVYYCGLGSWSELEYSYSYWGRGTQVTVSS
notes: nanobody from the semi-synthetic non-immune llama library Nomad#1; His6-tagged alkaline phosphatase fusion from pecan16; also called AP-NbE9; 6His-AP-NbE9; source: E. coli BL21Star periplasm (pecan16), purified (IMAC); not shown: alkaline phosphatase, C-terminal, kept
As to B2, in the experiment with BSA, the binding result was “no binding (tested: 2 μg/ml)”.

B3: NbE7 (VHH)
VHH: KVQLQASGGGLVQPGGSLQLSCVASGLSFSNYWMYWVRQAQGKGLEWVSSINPSGSFTSYTDSAKGRFTISKANDGHTVYLQMNNLKPEDTGVYYCGLGSWSELEYSYSYWGRGTQVTVSS
notes: nanobody from the semi-synthetic non-immune llama library Nomad#1; His6-tagged alkaline phosphatase fusion from pecan16; also called AP-NbE7; source: E. coli BL21Star periplasm (pecan16), purified (IMAC); not shown: alkaline phosphatase, C-terminal, kept
In the case of B3, in the experiment with BSA, the binding result is given as “no binding (tested: 2 μg/ml)”.

B4: NbH3 (VHH)
VHH: EVKLQESGGGLAQSGGSLRLSCAPQLGAHTIVAMGWYRQPPDSQREFVAMLFANGITRYNEAVKGRFTISRDDAKNTMYLQMNNLKPEDTAVYYCKIYDHSIMTDYWGQGTQVTVSS
notes: nanobody from the semi-synthetic non-immune llama library Nomad#1; His6-tagged alkaline phosphatase fusion from pecan16; source: E. coli BL21Star periplasm (pecan16), purified (IMAC)
As to B4, in the experiment with BSA, the binding result is “no binding (tested: 2 μg/ml)”.

B5: NbE2 (VHH)
VHH: QVKLQQSGGGSVQVGGSLRLSCTASGSAFIINTMSWYRRAPGKQRELVATITRRGTTNYADSVKGRFTISRDNAENTVDLHMNSLKPEDTAVYYCKGYRADWMTDYWGQGTQVTVSS
notes: as for B4
In the case of B5, in the experiment with BSA, the binding result is listed as “no binding (tested: 2 μg/ml)”.

B6: NbN39 (VHH)
VHH: VQLQASGGGLVQAGGSLRLSCTFSGGTFNGRNMGWFRQAPGKEREFAATISASGGRTYYAESVLGRFTISRDNARNTVYLQMNNLTPEDTAVYFCAAKRPTRLSENYDYKTENDYDYWGQGTQVTVS
notes: nanobody from the immune llama library; Nucleus-staining nanobody; used as negative control in the Ndel1 ELISA; source: bacterial periplasm (pecan126 phagemid clone), purified (IMAC)
B6: the binding result in the experiment with Npm2 (nucleoplasmin) [2] is listed as “binds”.

B7: NbG6 (VHH)
VHH: DVQLQASGGGLVQPGASLRLSCVSTRNTFSIDPMSWYRRAPGKGLEWVSGISNRGGSTSYADSVKGRFTISRDNIKSTLYLQMNSLKPEDTAVYYCNADASRWGSWGQGTQVTVSS
notes: as for B4
On to B7, for which the binding result in the experiment with BSA was “no binding (tested: 2 μg/ml)”.
